Columns and labels:
[1] = target: SNAPC1;SNAPC3;SNAPC4 1-516;SNAPC5;TBP;TFIIB;TFIIA (Homo sapiens;Homo sapiens;Homo …, UniProt Q16533;Q92966;Q5SXM2;O75971;P20226;Q00403;P52655;P52657 …, ||||||); assay: cryo-EM; local map of SNAPc-containing upstream complex; GraFix; EMSA: 250 mM NaCl, 50 mM HEPES pH 7.9, 20% glycerol, 1 mM TCEP, room temperature 15 min; 20 pM SNAPc, 5 pM DNA, 25 pM TBP/TFIIB (units as printed). Cryo-EM: ass; details: protein: recombinant;recombinant;recombinant;recombinant;recombinant;recombinant;recombinant; tags: ;;;;;;; copies: 1;1;1;1;1;1;1;1; blunt
[2] = target: SNAPC1;SNAPC3;SNAPC4 1-516;SNAPC5;TBP;TFIIB;TFIIA;TFIIF;RNA polymerase II (Homo sapiens;Homo sapiens;Homo …, UniProt Q16533;Q92966;Q5SXM2;O75971;P20226;Q00403;P52655;P52657;P35269;P13984;A0A8D1DPV6 …, ||||||||); assay: cryo-EM; closed complex; GraFix; TFIIE added in assembly; Zn2+ in SNAPC3; EMSA: 250 mM NaCl, 50 mM HEPES pH 7.9, 20% glycerol, 1 mM TCEP, room temperature 15 min; 20 pM SNAPc, 5 pM DNA, 25 pM TBP/TFIIB (units as printed). Cryo-EM: ass; details: tags: ;;;;;;;;; copies: 1;1;1;1;1;1;1;1;1;1;1;1;1;1;1;1;1;1;1;1;1;1; blunt
[3] = target: SNAPC1;SNAPC2;SNAPC3;SNAPC4 full length;SNAPC5 (Homo sapiens;Homo sapiens;Homo …, UniProt Q16533;Q13487;Q92966;Q5SXM2;O75971 1-368;1-334;1-411;1-1469;1-98, ||||); assay: EMSA; SNAPc-FL alone; EMSA: 250 mM NaCl, 50 mM HEPES pH 7.9, 20% glycerol, 1 mM TCEP, room temperature 15 min; 20 pM SNAPc, 5 pM DNA, 25 pM TBP/TFIIB (units as printed). Cryo-EM: ass; details: protein: recombinant;recombinant;recombinant;recombinant;recombinant; tags: ;;;N-terminal StrepTwin, C-terminal His;; copies: 1;1;1;1;1; blunt
[4] = target: SNAPC1;SNAPC3;SNAPC4 1-516;SNAPC5 (Homo sapiens;Homo sapiens;Homo …, UniProt Q16533;Q92966;Q5SXM2;O75971 1-368;1-411;1-516;1-98, |||); assay: EMSA; SNAPc-core alone; EMSA: 250 mM NaCl, 50 mM HEPES pH 7.9, 20% glycerol, 1 mM TCEP, room temperature 15 min; 20 pM SNAPc, 5 pM DNA, 25 pM TBP/TFIIB (units as printed). Cryo-EM: ass; details: protein: recombinant;recombinant;recombinant;recombinant; tags: ;;;; copies: 1;1;1;1; blunt
[5] = target: SNAPC1;SNAPC2;SNAPC3;SNAPC4 full length;SNAPC5;TBP;TFIIB (Homo sapiens;Homo sapiens;Homo …, UniProt Q16533;Q13487;Q92966;Q5SXM2;O75971;P20226;Q00403 …, ||||||); assay: EMSA; SNAPc-FL with TBP and TFIIB; EMSA: 250 mM NaCl, 50 mM HEPES pH 7.9, 20% glycerol, 1 mM TCEP, room temperature 15 min; 20 pM SNAPc, 5 pM DNA, 25 pM TBP/TFIIB (units as printed). Cryo-EM: ass; details: protein: recombinant;recombinant;recombinant;recombinant;recombinant;recombinant;recombinant; tags: ;;;N-terminal StrepTwin, C-terminal His;;;; copies: 1;1;1;1;1;1;1; blunt
[6] = target: SNAPC1;SNAPC3;SNAPC4 1-516;SNAPC5;TBP;TFIIB (Homo sapiens;Homo sapiens;Homo …, UniProt Q16533;Q92966;Q5SXM2;O75971;P20226;Q00403 1-368;1-411;1-516;1-98;1-339;1-316, |||||); assay: EMSA; SNAPc-core with TBP and TFIIB; EMSA: 250 mM NaCl, 50 mM HEPES pH 7.9, 20% glycerol, 1 mM TCEP, room temperature 15 min; 20 pM SNAPc, 5 pM DNA, 25 pM TBP/TFIIB (units as printed). Cryo-EM: ass; details: protein: recombinant;recombinant;recombinant;recombinant;recombinant;recombinant; tags: ;;;;;; copies: 1;1;1;1;1;1; blunt

Measured: binding result

B1: engineered U5 promoter cryo-EM scaffold (96 bp) (dsDNA)
DNA 1: AGTAGACACCATCAGTGTACTAGGACCCGAAAATTGAGTTACAGAAGTAACTGGTATACTCTGGTTTCTCTTCAGATCGCATAAAACCTGGCAGGG
DNA 2: CCCTGCCAGGTTTTATGCGATCTGAAGAGAAACCAGAGTATACCAGTTACTTCTGTAACTCAATTTTCGGGTCCTAGTACACTGATGGTGTCTACT
binds: [1] | [2]

B2: U5 promoter EMSA fragment (75 bp) (dsDNA)
DNA 1: ACCAGTTACTTCTGTAACTCAATTTTCGGGTAACTGCAATTCCTAGTACACTGATGGTGTCTACTAATCCCAAGG
DNA 2: CCTTGGGATTAGTAGACACCATCAGTGTACTAGGAATTGCAGTTACCCGAAAATTGAGTTACAGAAGTAACTGGT
binds: [3] | [4] | [5] | [6]

B3: U1 promoter EMSA fragment (76 bp) (dsDNA)
DNA 1: GAAACGTTGTGCCTCTGCCCCGACACAGCCTCATACGCCTCACTCTTTACACACACGGTCACTTGCCCCGCGCACT
DNA 2: AGTGCGCGGGGCAAGTGACCGTGTGTGTAAAGAGTGAGGCGTATGAGGCTGTGTCGGGGCAGAGGCACAACGTTTC
binds: [3] | [4] | [5] | [6]

— paper PMC9758055
